Data reported in US20210147486A1 (VIB VZW, published 2021).

Tests used:
[1] = target: T1, CsgG Y51A/N55I/F56Q/N91R/K94Q/R97W-del(V105-I107) pore containing the C terminal strep tag (Escherichia coli, UniProt P0AEA2 16-277); test: pore 2; complex made by incubating pore and peptide; DNA translocation, signal:noise
T1 construct: N551 read as N55I; also called Y51A/N551/F56Q/N91R/K94Q/R97W-del(V105-I107) (so in the source); not shown: C-terminal Strep tag
T1 chain: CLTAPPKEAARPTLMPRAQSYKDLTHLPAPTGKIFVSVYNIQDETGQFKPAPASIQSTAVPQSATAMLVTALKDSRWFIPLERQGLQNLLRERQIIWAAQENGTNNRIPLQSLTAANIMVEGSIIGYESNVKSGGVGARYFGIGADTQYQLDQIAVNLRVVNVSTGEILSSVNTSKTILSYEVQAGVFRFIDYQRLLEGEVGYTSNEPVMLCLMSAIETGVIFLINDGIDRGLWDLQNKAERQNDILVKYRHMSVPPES

[2] = target: T2, CsgG Y51T/N55V/F56Q/N91R/K94Q/R97W-del(V105-I107) pore containing the C terminal strep tag (Escherichia coli, UniProt P0AEA2 16-277); test: pore 9; complex made by incubating pore and peptide; DNA translocation, signal:noise
T2 construct: not shown: C-terminal Strep tag
T2 chain: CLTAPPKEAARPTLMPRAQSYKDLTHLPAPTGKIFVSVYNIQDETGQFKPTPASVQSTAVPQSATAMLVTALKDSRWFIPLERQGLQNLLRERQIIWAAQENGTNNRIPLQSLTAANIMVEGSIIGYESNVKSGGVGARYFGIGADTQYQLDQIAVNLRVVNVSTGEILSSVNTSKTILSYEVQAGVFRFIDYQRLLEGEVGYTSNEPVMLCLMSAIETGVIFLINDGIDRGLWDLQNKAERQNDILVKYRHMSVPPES

[3] = target: T3, CsgG Y51A/F56Q/N91R/K94Q/R97W-del(V105-I107) pore containing the C terminal strep tag (Escherichia coli, UniProt P0AEA2 16-277); test: pore 1; complex made by incubating pore and peptide; DNA translocation, signal:noise
T3 construct: not shown: C-terminal Strep tag
T3 chain: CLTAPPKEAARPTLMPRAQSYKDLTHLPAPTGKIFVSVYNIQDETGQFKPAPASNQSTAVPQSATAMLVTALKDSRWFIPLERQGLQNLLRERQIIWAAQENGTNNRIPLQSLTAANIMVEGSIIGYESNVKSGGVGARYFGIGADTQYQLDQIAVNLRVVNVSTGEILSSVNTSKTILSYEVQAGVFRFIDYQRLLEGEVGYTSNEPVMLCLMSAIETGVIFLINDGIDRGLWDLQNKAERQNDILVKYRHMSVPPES

[4] = target: T4, CsgG Y51A/F56V/N91R/K94Q/R97W-del(V105-I107) pore (Escherichia coli, UniProt P0AEA2 16-277); test: pore 6; complex made by incubating pore and peptide; DNA translocation, signal:noise
T4 chain: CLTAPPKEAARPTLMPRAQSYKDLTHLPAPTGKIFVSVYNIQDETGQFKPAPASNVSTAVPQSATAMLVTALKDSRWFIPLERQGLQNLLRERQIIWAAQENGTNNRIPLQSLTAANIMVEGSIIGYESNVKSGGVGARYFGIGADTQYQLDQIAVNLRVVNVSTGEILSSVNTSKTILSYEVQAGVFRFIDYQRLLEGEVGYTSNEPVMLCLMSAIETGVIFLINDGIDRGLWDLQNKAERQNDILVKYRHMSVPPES

[5] = target: T5, CsgG Y51A/N55V/F56Q/N91R/K94Q/R97W-del(V105-I107) pore containing the C terminal strep tag (Escherichia coli, UniProt P0AEA2 16-277); test: reconstitution of purified pore with synthetic peptide; SDS-PAGE after heating
T5 construct: also called Y51A/F56Q/N55V/N91R/K94Q/R97W-del(V105-I107); not shown: C-terminal Strep tag
T5 chain: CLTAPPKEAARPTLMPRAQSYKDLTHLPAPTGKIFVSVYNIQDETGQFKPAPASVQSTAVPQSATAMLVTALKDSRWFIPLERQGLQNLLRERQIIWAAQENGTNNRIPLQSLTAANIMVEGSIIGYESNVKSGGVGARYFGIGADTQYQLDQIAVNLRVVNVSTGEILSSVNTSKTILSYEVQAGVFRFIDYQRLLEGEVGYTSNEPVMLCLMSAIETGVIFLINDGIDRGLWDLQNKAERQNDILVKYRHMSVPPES

[6] = target: T6, CsgG Y51A/F56A/N91R/K94Q/R97W-del(V105-I107) pore containing the C terminal strep tag (Escherichia coli, UniProt P0AEA2 16-277); test: pore 4; complex made by incubating pore and peptide; DNA translocation, signal:noise
T6 construct: not shown: C-terminal Strep tag
T6 chain: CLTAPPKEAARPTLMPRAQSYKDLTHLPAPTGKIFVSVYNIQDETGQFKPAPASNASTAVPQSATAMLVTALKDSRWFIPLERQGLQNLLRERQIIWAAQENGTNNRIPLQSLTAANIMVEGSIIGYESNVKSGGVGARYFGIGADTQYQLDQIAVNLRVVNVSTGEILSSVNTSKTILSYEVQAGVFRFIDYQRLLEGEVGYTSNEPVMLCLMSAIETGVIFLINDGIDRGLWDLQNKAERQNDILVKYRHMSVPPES

[7] = target: T7, CsgG Y51S/N55A/F56Q/N91R/K94Q/R97W-del(V105-I107) pore (Escherichia coli, UniProt P0AEA2 16-277); test: pore 7; complex made by incubating pore and peptide; DNA translocation, signal:noise
T7 chain: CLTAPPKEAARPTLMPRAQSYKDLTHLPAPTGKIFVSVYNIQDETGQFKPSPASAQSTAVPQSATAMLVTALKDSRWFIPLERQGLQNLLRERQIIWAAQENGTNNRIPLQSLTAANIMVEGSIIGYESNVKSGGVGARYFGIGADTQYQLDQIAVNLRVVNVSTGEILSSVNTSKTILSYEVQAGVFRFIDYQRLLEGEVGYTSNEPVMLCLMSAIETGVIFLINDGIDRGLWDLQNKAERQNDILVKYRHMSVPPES

[8] = target: T8, CsgG Y51A/F56I/N91R/K94Q/R97W-del(V105-I107) pore containing the C terminal strep tag (Escherichia coli, UniProt P0AEA2 16-277); test: pore 5; complex made by incubating pore and peptide; DNA translocation, signal:noise
T8 construct: F561 read as F56I; also called Y51A/F561/N91R/K94Q/R97W-del(V105-I107) (so in the source); not shown: C-terminal Strep tag
T8 chain: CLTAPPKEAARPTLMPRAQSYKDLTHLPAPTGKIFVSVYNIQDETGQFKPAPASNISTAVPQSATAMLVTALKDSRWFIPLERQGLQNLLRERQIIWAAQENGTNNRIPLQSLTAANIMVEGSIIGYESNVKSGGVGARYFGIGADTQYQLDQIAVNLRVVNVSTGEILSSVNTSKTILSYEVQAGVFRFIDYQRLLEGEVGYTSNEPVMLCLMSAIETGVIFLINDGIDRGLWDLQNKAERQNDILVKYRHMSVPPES

[9] = target: T9, CsgG Y51S/N55V/F56Q/N91R/K94Q/R97W-del(V105-I107) pore containing the C terminal strep tag (Escherichia coli, UniProt P0AEA2 16-277); test: pore 8; complex made by incubating pore and peptide; DNA translocation, signal:noise
T9 construct: not shown: C-terminal Strep tag
T9 chain: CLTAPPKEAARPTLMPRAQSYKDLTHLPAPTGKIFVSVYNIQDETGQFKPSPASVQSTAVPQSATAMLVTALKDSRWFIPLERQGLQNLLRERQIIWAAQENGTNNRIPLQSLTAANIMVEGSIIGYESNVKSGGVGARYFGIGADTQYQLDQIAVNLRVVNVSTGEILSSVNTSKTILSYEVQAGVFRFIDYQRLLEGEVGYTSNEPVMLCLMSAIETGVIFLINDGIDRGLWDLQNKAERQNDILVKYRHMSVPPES

Measured: binding result

GTMTFQFRNPNFGGNPNNGAFLLNSAQAQNSYKDP [CsgF-(1-35) synthetic peptide]
binds: all assays above
